Source: publication PMC12607617, “Self-resistance mechanism to acyldepsipeptide antibiotics in the Streptomyces producer” (mBio, 2025)

Target: the molecule itself
Assay: SEC; purified S. hawaiiensis ClpP1, alone or with ClpP_(ADEP), pre-incubated with ADEP1

B1: Streptomyces hawaiiensis ClpP1, untagged (enzyme, Streptomyces hawaiiensis NRRL 15010, UniProt A0A5B9BGY8 1-219, looked up)
chain: MRRPGAVVRRAGGYVTNLMPSAAGEPSIGGGLGDQVYNRLLNERIIFLGQPVDDDIANKITAQLLLLASDPEKDIYLYINSPGGSITAGMAIYDTMQYIKNDVVTIAMGLAASMGQFLLSAGTPGKRFALPNAEILIHQPSAGLAGSASDIKIHAERLLHTKKRMAELTSQHTGQTIEQITRDSDRDRWFDAFEAKEYGLIDDVMTTAAGMPGGGGTGA
notes: ClpP1, proteolytic subunit of the Clp protease, Streptomyces hawaiiensis NRRL 15010; Printed as untagged in the pull-down; also called shClpP1
stoichiometry N: 14
